Values of other authors in patent publication US20100298348A1, “Method of Decreasing Ubiquitylated Protein Levels” (priority 2009, published 2010).

Tests used:
[1] = test system: gamma secretase; conditions: in vivo; cited from earlier work
[2] = test system: hippocampal slices; conditions: cited from earlier work
[3] = test system: mouse model of AD; conditions: cited from earlier work

Molecule	outcome of Phase III clinical trial [1]	Aβ-induced decrease in synaptic function [2]	learning and memory [3]
C[C@@H](C(=O)O)c1ccc(-c2ccccc2)c(F)c1 [Flurizan]	failed		
Uch-L1: ubiquitin hydrolase (protein, UniProt P09936 1-220, looked up) Ubiquitin carboxyl-terminal …: MQLKPMEINPEMLNKVLSRLGVAGQWRFVDVLGLEEESLGSVPAPACALLLLFPLTAQHENFRKKQIEELKGQEVSPKVYFMKQTIGNSCGTIGLIHAVANNQDKLGFEDGSVLKQFLSETEKMSPEDRAKCFEKNEAIQAAHDAVAQEGQCRVDDKVNFHFILFNNVDGHLYELDGRMPFPVNHGASSEDTLLKDAAKVCREFTEREQGEVRFSAVALC		reverses	improves
